Substrate in the data set: CC(C)=CCC/C(C)=C/CC/C(C)=C/CC/C=C(\C)CC/C=C(\C)CCC=C(C)C
In words: Activity of C-terminal hexahistidine-tagged rat recombinant squalene epoxidase without N-terminal putative membrane domain expressed in Escherichia coli.

The text below walks through data of ChEMBL document CHEMBL1155741, “Ellagitannins and hexahydroxydiphenoyl esters as inhibitors of vertebrate squalene epoxidase” (J Nat Prod, 2001).

B1: Squalene monooxygenase (Rattus norvegicus), P52020 (protein)
chain: MWTFLGIATFTYFYKKCGDVTLANKELLLCVLVFLSLGLVLSYRCRHRNGGLLGRHQSGSQFAAFSDILSALPLIGFFWAKSPPESEKKEQLESKRRRKEVNLSETTLTGAATSVSTSSVTDPEVIIIGSGVLGSALATVLSRDGRTVTVIERDLKEPDRILGECLQPGGYRVLRELGLGDTVESLNAHHIHGYVIHDCESRSEVQIPYPVSENNQVQSGVAFHHGKFIMSLRKAAMAEPNVKFIEGVVLRLLEEDDAVIGVQYKDKETGDTKELHAPLTVVADGLFSKFRKNLISNKVSVSSHFVGFIMKDAPQFKANFAELVLVDPSPVLIYQISPSETRVLVDIRGELPRNLREYMTEQIYPQIPDHLKESFLEACQNARLRTMPASFLPPSSVNKRGVLLLGDAYNLRHPLTGGGMTVALKDIKIWRQLLKDIPDLYDDAAIFQAKKSFFWSRKRSHSFVVNVLAQALYELFSATDDSLRQLRKACFLYFKLGGECLTGPVGLLSILSPDPLLLIRHFFSVAVYATYFCFKSEPWATKPRALFSSGAILYKACSIIFPLIYSEMKYLVH
In the case of B1, the Michaelis-Menten constant (Km) was 3.8 µM and the kcat amounted to 0.0683 s⁻¹.
